Assay results published in doi:10.1101/435982 (bioRxiv, 2018).

Columns and labels:
[1] = biological target: His-Halo-XcpS62-396 (not stated | P. aeruginosa) (UniProt Q00513); experiment: negative-stain electron microscopy structure
SEC-MALS = biological target: the molecule itself; experiment: SEC-MALS

Chain of His-Halo-XcpS62-396 (Q00513 whole entry, the tested form may be a part): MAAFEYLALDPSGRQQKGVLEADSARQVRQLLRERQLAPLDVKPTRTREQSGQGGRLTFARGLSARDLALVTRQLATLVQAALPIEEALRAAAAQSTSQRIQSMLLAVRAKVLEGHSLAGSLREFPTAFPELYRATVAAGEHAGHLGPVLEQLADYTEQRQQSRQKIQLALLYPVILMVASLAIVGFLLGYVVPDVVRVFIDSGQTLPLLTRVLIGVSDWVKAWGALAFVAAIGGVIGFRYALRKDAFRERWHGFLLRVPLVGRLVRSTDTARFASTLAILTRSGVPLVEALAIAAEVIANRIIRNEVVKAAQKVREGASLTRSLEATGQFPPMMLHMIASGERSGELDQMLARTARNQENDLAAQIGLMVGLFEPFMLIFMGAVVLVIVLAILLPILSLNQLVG

Molecule	stoichiometry N [1]	stoichiometry N (SEC-MALS)
His-Halo-XcpS62-396 (from UniProt Q00513 62-396) (domain or fragment)	2	–
Strep-mCherry-XcpS56-396 (domain or fragment, P. aeruginosa, UniProt Q00513 56-396, looked up) RLTFARGLSARDLALVTRQLATLVQAALPIEEALRAAAAQSTSQRIQSMLLAVRAKVLEGHSLAGSLREFPTAFPELYRATVAAGEHAGHLGPVLEQLADYTEQRQQSRQKIQLALLYPVILMVASLAIVGFLLGYVVPDVVRVFIDSGQTLPLLTRVLIGVSDWVKAWGALAFVAAIGGVIGFRYALRKDAFRERWHGFLLRVPLVGRLVRSTDTARFASTLAILTRSGVPLVEALAIAAEVIANRIIRNEVVKAAQKVREGASLTRSLEATGQFPPMMLHMIASGERSGELDQMLARTARNQENDLAAQIGLMVGLFEPFMLIFMGAVVLVIVLAILLP	–	2
